Our source for the binding result, EC50 and Kd values is patent US20200277392A1 (Hoffmann-La Roche, published 2020).

Usually EC50 stands for the concentration that produces a half-maximal response.

For assay [1], the target named is T1, human OX40 Fc(kih), monomeric Fc-linked human OX40 antigen ECD (human, UniProt P0DOX5 223-449 = IgG part).
T1 construct: Heterodimer of one OX40 ECD (aa 29-214)-AcTEV-Fc knob-Avi chain and one Fc hole chain; Biotinylated at the Avi tag for phage selection and ELISA; also called recombinant OX40 Fc (kih) receptor; biotinylated human OX40
Description: SPR (Biacore T200, 25 °C): bispecific held on immobilised human TnC; human OX40 Fc(kih) at 250 nM injected for 90 s as analyte 2. On the procedure: All SPR experiments were performed on a Biacore T200 at 25° C. with HBS-EP as running buffer (0.01 M HEPES pH 7.4, 0.15 M NaCl, 3 mM EDTA, 0.005% Surfactant P20, Biacore, Freiburg/Germany).
Biotinylated human TnC was directly coupled to a flow cell of a streptavidin (SA) sensor chip. Immobilization levels up to 1000 resonance units (RU) were used.
Bulk refractive index differences were corrected for by subtracting the response obtained in a reference flow cell, where no protein was immobilized.

In assay [2] the target is T2, human OX40 on cells (human, UniProt P43489 29-277).
T2 construct: also called CD134; OX40+ Cells
T2 sequence: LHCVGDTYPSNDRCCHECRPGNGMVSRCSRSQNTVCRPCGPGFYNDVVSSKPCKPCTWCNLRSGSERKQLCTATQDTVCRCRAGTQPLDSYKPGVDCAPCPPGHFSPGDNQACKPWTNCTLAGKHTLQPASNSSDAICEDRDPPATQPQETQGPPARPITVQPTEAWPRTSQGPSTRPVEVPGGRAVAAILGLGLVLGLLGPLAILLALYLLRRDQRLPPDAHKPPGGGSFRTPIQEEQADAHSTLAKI
As to the kind of experiment: flow cytometry on OX40+ cells (activated human PBMC). On the procedure: For labeling, cells were harvested, washed with pre-warmed (37° C.) DPBS and adjusted to a cell density of 1×10⁷ cells/mL in DPBS. eFluor670 cell proliferation dye (eBioscience, Cat.-No. 65-0840-85) was added to the suspension of naïve human PBMC at a final concentration of […] and a final cell density of 0.5×10⁷ cells/mL in DPBS. Cells were then incubated for 10 min at room temperature in the dark. To stop the labeling reaction, 4 mL heat inactivated FBS was added and cells were washed three times with T cell medium. A 2:1 mixture of 1×10⁵ resting eFluor670 labeled human PBMC and 0.5×10⁵ unlabeled activated human PBMC were then added to each well of round-bottomed suspension cell 96-well plates (Greiner bio-one, cellstar, Cat. No. 650185).
Cells were stained for 120 minutes at 4° C. in the dark in 50 μL/well 4° C. FACS buffer containing different amounts of the indicated antigen binding molecules. After three washes with 4° C. FACS buffer, cells were stained for 45 minutes at 4° C. in the dark in 25 μL/well 4° C. FACS buffer containing a mixture of fluorescently labeled anti-human CD4 (clone RPA-T4, mouse IgG1 k, BioLegend, Cat.-No. 300532), anti-human CD8 (clone RPa-T8, mouse IgGlk, BioLegend, Cat.-No. 3010441) and Fluorescein isothiocyanate (FITC)-conjugated AffiniPure anti-human IgG Fcγ-fragment-specific goat IgG F(ab′)₂ fragment (Jackson ImmunoResearch, Cat.-No. 109-096-098).
Cells were then resuspended in […] FACS-buffer containing 0.2 μg/mL DAPI (Santa Cruz Biotec, Cat. No. Sc-3598) and acquired the same day using 5-laser LSR-Fortessa (BD Bioscience with DIVA software).
(In general: Flow cytometry measures light scatter and fluorescence of single cells or particles in a stream.)

Assay [3] addresses T3, mouse TnC with C-terminal Avi- and His-tags (mouse, biotinylated at the C-terminal Avi-tag).
T3 construct: the N-terminal fn5 and C-terminal fn6 parts look like the human ones; also called muTnC; murine TnC
T3 chain: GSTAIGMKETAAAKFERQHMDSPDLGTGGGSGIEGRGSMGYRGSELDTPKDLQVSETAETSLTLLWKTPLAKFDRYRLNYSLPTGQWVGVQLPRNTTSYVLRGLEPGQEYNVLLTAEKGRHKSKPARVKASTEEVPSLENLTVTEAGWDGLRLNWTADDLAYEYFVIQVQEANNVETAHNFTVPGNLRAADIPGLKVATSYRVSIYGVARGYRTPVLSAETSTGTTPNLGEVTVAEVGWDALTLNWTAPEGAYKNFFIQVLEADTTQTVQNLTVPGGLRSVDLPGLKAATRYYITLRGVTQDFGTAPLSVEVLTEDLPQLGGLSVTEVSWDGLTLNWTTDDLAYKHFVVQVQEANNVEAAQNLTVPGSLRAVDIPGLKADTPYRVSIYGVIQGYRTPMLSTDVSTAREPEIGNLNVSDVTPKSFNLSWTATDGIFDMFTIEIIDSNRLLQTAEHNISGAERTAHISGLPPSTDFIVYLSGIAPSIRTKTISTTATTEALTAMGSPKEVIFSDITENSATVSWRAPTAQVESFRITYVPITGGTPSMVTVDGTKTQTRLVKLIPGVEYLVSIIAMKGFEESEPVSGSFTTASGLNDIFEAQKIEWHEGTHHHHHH
Description: SPR Biacore T200, biotinylated TnC on SA chip, bispecific as analyte, 1:1 fit, apparent KD (bivalent binding). The protocol: (§1) The capacity of the bispecific constructs to bind human, murine and cynomolgus TnC was analysed by surface plasmon resonance (SPR). All SPR experiments were performed on a Biacore T200 at 25° C. with HBS-EP as running buffer (0.01 M HEPES pH 7.4, 0.15 M NaCl, 3 mM EDTA, 0.005% Surfactant P20, Biacore, Freiburg/Germany).
(§2) Biotinylated human, murine or cynomolgus TnC molecules were immobilised on a SA chip to reach an immobilization level of 10 resonance units (RU).
(§3) Following immobilisation, the bispecific molecules or control molecules were immediately passed over the chip surface at concentrations ranging from 0.05-50 nM, at a flow rate of 30 μL/minute for 120 seconds and a dissociation phase of 180 seconds. The surface was regenerated using 10 mM glycine pH2.1. Bulk refractive index differences were corrected for by subtracting the response obtained in a reference flow cell, where no TnC was immobilized. Affinity/Avidity was determined under these experimental conditions using the Langmuir 1:1 curve fitting. For bivalent binding the same 1:1 fitting was used leading to an apparent KD value.
(In SPR one partner is held on a chip, and binding of the other changes the refractive index at the surface.)

Assay [4] concerns the target T4, cynomolgus TnC with C-terminal Avi- and His-tags (cynomolgus, biotinylated at the C-terminal Avi-tag).
T4 construct: also called cynoTnC; cyno TnC
T4 chain: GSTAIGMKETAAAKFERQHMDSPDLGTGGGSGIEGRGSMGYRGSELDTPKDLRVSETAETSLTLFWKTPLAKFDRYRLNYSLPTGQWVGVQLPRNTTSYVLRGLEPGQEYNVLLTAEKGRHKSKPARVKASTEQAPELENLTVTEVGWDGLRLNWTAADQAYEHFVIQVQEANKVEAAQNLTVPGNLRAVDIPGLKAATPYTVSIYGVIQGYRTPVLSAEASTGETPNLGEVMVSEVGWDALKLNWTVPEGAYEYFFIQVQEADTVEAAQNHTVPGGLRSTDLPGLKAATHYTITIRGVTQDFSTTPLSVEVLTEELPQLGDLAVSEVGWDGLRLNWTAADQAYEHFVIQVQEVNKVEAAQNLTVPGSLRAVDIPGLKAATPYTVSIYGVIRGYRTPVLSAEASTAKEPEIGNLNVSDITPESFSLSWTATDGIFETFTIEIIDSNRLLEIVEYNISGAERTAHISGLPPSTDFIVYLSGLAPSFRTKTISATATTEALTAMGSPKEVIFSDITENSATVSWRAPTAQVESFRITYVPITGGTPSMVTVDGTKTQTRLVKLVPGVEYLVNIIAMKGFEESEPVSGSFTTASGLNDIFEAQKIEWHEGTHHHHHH
The assay is described as above. The protocol:
as §1, §2, §3

The target in assay [5] is T1, human OX40 Fc(kih), monomeric Fc-linked …. As to the kind of experiment: ELISA, Fab-containing bacterial supernatants on biotinylated human OX40 on neutravidin plates, anti-Flag/HRP detection. On the procedure: Selections were carried out over 3 or 4 rounds using constant antigen concentrations of 100 nM. […] In rounds 2 and 4, in order to avoid enrichment of binders to neutravidin, capture of antigen: phage complexes was performed by addition of 5.4×10⁷ streptavidin-coated magnetic beads. […] Fab-containing bacterial supernatants were added and binding Fabs were detected via their Flag-tags using an anti-Flag/HRP secondary antibody. […] They were bacterially expressed in a 0.5 liter culture volume, affinity purified and further characterized by SPR-analysis using BioRad's ProteOn XPR36 biosensor.
On the technique in general: ELISA stands for enzyme-linked immunosorbent assay.

B1: 49B4/TnC 18D4 P329GLALA 2 + 2 (ID7216) (bispecific antibody, human IgG1, kappa, L234A L235A)
heavy: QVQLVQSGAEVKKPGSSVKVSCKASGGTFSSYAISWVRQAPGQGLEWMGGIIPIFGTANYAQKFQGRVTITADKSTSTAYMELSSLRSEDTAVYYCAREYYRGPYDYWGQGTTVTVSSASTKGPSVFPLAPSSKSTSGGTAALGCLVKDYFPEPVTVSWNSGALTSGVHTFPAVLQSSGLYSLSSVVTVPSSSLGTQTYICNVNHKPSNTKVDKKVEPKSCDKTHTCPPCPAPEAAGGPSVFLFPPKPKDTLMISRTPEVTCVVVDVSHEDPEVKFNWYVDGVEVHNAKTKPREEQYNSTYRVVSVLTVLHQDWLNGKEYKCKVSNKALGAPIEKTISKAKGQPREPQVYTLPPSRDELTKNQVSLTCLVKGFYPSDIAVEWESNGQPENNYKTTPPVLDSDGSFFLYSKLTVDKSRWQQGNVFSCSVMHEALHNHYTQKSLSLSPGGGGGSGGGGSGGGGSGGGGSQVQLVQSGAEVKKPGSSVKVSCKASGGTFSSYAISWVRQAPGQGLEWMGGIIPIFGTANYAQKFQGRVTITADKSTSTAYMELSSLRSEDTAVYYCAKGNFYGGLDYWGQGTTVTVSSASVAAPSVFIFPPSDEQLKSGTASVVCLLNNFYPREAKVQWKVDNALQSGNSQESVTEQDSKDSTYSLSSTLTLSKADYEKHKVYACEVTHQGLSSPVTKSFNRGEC
light 1: DIQMTQSPSTLSASVGDRVTITCRASQSISSWLAWYQQKPGKAPKLLIYDASSLESGVPSRFSGSGSGTEFTLTISSLQPDDFATYYCQQYSSQPYTFGQGTKVEIKRTVAAPSVFIFPPSDEQLKSGTASVVCLLNNFYPREAKVQWKVDNALQSGNSQESVTEQDSKDSTYSLSSTLTLSKADYEKHKVYACEVTHQGLSSPVTKSFNRGEC
light 2: DIQMTQSPSTLSASVGDRVTITCRASQSISSWLAWYQQKPGKAPKLLIYDASSLESGVPSRFSGSGSGTEFTLTISSLQPDDFATYYCQQNKKFPSGTFGQGTKVEIKSSASTKGPSVFPLAPSSKSTSGGTAALGCLVKDYFPEPVTVSWNSGALTSGVHTFPAVLQSSGLYSLSSVVTVPSSSLGTQTYICNVNHKPSNTKVDKKVEPKSCD
notes: huIgG1 P329G LALA; 49B4 VHCH1-Fc-(G4S)4-18D4 VHCL heavy chain, 49B4 VLCL light chain, 18D4 VLCH1 crossed light chain; also called 2 + 2 (49B4/18D4); 49B4/18D4 2 + 2
Consider B1, for which the binding result in assay [1] is given as “binds”. This molecule also returned an EC50 in assay [2] of 6.59 nM. For the same molecule, the Kd in assay [3] came to 0.3 nM; in assay [4], 0.28 nM.

B2: 49B4/TnC 18D4 P329GLALA 4 + 1 (ID7745) (bispecific antibody, human IgG1, kappa, L234A L235A)
heavy 1: not shown
heavy 2: not shown
light: DIQMTQSPSTLSASVGDRVTITCRASQSISSWLAWYQQKPGKAPKLLIYDASSLESGVPSRFSGSGSGTEFTLTISSLQPDDFATYYCQQYSSQPYTFGQGTKVEIKRTVAAPSVFIFPPSDEQLKSGTASVVCLLNNFYPREAKVQWKVDNALQSGNSQESVTEQDSKDSTYSLSSTLTLSKADYEKHKVYACEVTHQGLSSPVTKSFNRGEC
For the molecule B2, the binding result in assay [1] is recorded as “binds”.

B3: anti-OX40 clone 8H9, Fab (Fab, V domains shown)
VH: QVQLVQSGAEVKKPGSSVKVSCKASGGTFSSYAISWVRQAPGQGLEWMGGIIPIFGTANYAQKFQGRVTITADKSTSTAYMELSSLRSEDTAVYYCAREYGWMDYWGQGTTVTVSS
VL: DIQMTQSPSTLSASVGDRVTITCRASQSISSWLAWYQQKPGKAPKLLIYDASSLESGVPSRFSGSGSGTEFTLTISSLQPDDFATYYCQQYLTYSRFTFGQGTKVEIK
notes: Flag-tagged Fab in bacterial supernatant (phage library DP88-4); also called OX40(8H9)
B3: in assay [5], the binding result was “binds”.

B4: anti-OX40 clone 1G4, Fab (Fab, V domains shown)
VH: QVQLVQSGAEVKKPGSSVKVSCKASGGTFSSYAISWVRQAPGQGLEWMGGIIPIFGTANYAQKFQGRVTITADKSTSTAYMELSSLRSEDTAVYYCAREYGSMDYWGQGTTVTVSS
VL: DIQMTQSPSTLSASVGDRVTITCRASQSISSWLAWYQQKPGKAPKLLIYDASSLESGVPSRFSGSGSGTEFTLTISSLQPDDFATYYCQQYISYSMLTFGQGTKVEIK
notes: Flag-tagged Fab in bacterial supernatant (phage library DP88-4); also called OX40(1G4)
As for B4, the binding result in assay [5] is “binds”.

B5: anti-OX40 clone 17A9, Fab (Fab, V domains shown)
VH: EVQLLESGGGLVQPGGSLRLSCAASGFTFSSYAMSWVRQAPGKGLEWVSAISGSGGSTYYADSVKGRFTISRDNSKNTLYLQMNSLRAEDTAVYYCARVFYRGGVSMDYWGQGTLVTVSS
VL: SSELTQDPAVSVALGQTVRITCQGDSLRSYYASWYQQKPGQAPVLVIYGKNNRPSGIPDRFSGSSSGNTASLTITGAQAEDEADYYCNSRVMPHNRVFGGGTKLTV
notes: Flag-tagged Fab in bacterial supernatant (phage library lambda-DP47); also called OX40(17A9)
As to B5, the binding result in assay [5] is reported as “binds”.

B6: anti-OX40 clone 20B7, Fab (Fab, V domains shown)
VH: QVQLVQSGAEVKKPGSSVKVSCKASGGTFSSYAISWVRQAPGQGLEWMGGIIPIFGTANYAQKFQGRVTITADKSTSTAYMELSSLRSEDTAVYYCARVNYPYSYWGDFDYWGQGTTVTVSS
VL: DIQMTQSPSTLSASVGDRVTITCRASQSISSWLAWYQQKPGKAPKLLIYDASSLESGVPSRFSGSGSGTEFTLTISSLQPDDFATYYCQQYQAFSLTFGQGTKVEIK
notes: Flag-tagged Fab in bacterial supernatant (phage library DP88-4); also called OX40(20B7)
Consider B6, for which, in assay [5], the binding result is recorded as “binds”.

B7: anti-OX40 clone 49B4, Fab (Fab, V domains shown)
VH: QVQLVQSGAEVKKPGSSVKVSCKASGGTFSSYAISWVRQAPGQGLEWMGGIIPIFGTANYAQKFQGRVTITADKSTSTAYMELSSLRSEDTAVYYCAREYYRGPYDYWGQGTTVTVSS
VL: DIQMTQSPSTLSASVGDRVTITCRASQSISSWLAWYQQKPGKAPKLLIYDASSLESGVPSRFSGSGSGTEFTLTISSLQPDDFATYYCQQYSSQPYTFGQGTKVEIK
notes: Flag-tagged Fab in bacterial supernatant (phage library DP88-4); also called OX40(49B4)
For B7, the binding result in assay [5] is listed as “binds”.
